Columns and labels:
[1] = target: T1, soluble human αKlotho (recombinant) (human, UniProt Q9UEF7 34-981); test: SPR (ProteOn XPR36), Fab captured by anti-IgG(H+L), human αKlotho injected in serial dilutions, Langmuir fit
T1 construct: also called Hu aKL; recombinant human αKlotho
T1 sequence (looked up): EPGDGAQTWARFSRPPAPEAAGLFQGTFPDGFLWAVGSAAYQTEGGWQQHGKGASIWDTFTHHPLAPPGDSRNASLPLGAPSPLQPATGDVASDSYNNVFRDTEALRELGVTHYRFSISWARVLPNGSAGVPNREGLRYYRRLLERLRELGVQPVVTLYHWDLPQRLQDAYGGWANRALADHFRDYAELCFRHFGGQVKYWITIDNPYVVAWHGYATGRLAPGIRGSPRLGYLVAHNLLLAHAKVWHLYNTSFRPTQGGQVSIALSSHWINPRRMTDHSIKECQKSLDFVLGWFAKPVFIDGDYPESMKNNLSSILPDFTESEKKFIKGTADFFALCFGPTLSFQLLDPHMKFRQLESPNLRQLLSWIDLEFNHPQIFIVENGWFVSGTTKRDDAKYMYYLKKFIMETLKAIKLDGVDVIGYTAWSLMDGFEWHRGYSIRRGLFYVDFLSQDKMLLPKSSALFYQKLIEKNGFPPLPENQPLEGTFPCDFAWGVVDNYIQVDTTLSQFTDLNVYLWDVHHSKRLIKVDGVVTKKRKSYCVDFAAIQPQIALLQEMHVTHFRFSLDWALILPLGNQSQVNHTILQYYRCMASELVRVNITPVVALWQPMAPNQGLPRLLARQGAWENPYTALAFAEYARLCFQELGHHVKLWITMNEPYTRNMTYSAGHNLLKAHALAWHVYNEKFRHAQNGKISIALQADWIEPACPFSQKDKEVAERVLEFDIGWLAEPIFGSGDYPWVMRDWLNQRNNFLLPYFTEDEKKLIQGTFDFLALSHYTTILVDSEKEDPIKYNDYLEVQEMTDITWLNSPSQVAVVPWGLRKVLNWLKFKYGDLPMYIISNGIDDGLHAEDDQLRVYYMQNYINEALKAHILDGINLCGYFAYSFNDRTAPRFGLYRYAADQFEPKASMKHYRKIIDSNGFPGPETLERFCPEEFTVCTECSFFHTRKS
Description: (§1) Estimated affinities against human and mouse antigen for select αKlotho Fabs were obtained by surface plasmon resonance on a ProteOn XPR36 (FIG. 17). Fabs were captured using an anti-IgG(H+L) antibody and serial dilutions of αKlotho were injected. Binding curves were fitted to the Langmuir model. (A) Determined Kon, Koff and KD values. (B) and (C) Binding curves for human and mouse antigen respectively.

[2] = target: T2, mouse αKlotho (mouse, UniProt O35082 35-982); test: SPR (ProteOn XPR36), Fab captured by anti-IgG(H+L), mouse αKlotho injected in serial dilutions, Langmuir fit [continued) C.]
T2 construct: also called Mu aKL
T2 sequence (looked up): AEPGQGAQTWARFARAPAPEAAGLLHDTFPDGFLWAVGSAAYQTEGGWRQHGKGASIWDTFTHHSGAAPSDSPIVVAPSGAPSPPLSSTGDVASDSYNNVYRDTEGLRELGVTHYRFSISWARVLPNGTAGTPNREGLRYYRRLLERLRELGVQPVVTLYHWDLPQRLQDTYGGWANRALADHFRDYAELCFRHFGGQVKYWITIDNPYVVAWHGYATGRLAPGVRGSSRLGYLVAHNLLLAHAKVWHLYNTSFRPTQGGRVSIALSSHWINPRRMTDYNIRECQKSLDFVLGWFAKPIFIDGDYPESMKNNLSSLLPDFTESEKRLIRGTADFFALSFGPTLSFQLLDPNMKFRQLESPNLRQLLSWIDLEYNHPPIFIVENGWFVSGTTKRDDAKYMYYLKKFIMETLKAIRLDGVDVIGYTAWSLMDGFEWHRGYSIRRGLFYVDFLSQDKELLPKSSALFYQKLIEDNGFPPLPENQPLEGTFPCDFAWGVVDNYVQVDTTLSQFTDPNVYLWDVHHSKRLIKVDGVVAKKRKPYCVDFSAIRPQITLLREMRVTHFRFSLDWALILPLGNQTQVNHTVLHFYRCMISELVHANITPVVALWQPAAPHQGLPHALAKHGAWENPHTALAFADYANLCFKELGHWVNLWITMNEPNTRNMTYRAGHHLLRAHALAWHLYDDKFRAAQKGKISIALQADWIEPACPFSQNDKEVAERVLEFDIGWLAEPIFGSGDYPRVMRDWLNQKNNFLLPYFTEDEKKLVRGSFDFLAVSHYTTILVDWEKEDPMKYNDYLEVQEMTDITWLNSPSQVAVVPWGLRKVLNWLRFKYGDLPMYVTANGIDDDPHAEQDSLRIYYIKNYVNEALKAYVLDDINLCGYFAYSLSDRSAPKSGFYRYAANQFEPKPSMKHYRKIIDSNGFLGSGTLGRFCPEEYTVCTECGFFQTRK
Description: as §1

Kd [1]: 1.02 nM
koff [1]: 0.000315 s⁻¹
kon [1]: 308000 M⁻¹ s⁻¹
Kd [2]: 0.784 nM
koff [2]: 0.000159 s⁻¹
kon [2]: 202000 M⁻¹ s⁻¹
B1: sb106 Fab (Fab, V domains shown)
VH: EVQLVESGGGLVQPGGSLRLSCAASGFNISYYSIHWVRQAPGKGLEWVAYISPSYGYTSYADSVKGRFTISADTSKNTAYLQMNSLRAEDTAVYYCARYYVYASHGWAGYGMDYWGQGTLVTVSS
VL: DIQMTQSPSSLSASVGDRVTITCRASQSVSSAVAWYQQKPGKAPKLLIYSASSLYSGVPSRFSGSRSGTDFTLTISSLQPEDFATYYCQQAGYSPITFGQGTKVEIKR
notes: also called Fsb106; clone 48

— patent US20190041402A1 (GOVERNING COUNCIL OF THE UNIVERSITY OF TORONTO, published 2019)
